Measured values: the RNAGym collection of RNA variant scans (doi:10.1093/molbev/msab373)

B1: Azoarcus group I ribozyme (parent)
chain: GUGCCUUGCGCCGGGAAACCACGCAAGGGAUGGUGUCAAAUUCGGCGAAACCUAAGCGCCCGCCCGGGCGUAUGGCAACGCCGAGCCAAGCUUCGGCGCCUGCGCCGAUGAAGGUGUAGAGACUAGACGGCACCCACCUAAGGCAAACGCUAUGGUGAAGGCAUAGUCCAGGGAGUGGCGAAAGUCACACAAACCGG

Variants of: B1
Assay: reverse-splicing fitness (ratio to wild type); higher = more active; in vitro selection; Mg2+ level not given
In short: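 An in vitro group I ribozyme library with randomized positions was T7-transcribed and gel-purified. In triplicate, 10 pmol RNA in EPPS pH 7.5 was reacted with 50 pmoles of a 30-nt RNA substrate for 1 h at 37 °C across several added MgCl2 levels (1–48 mM), then stopped with EDTA. Products were reverse transcribed from a substrate-complementary primer, PCR-amplified and sequenced (HiSeq 4000). Fitness is a variant's read proportion after selection over that before, normalised to wild type.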
For A111C A120U A145G C150U C169A U176G, the reverse-splicing fitness was 0.00278.
In the case of A111C A120U A145G C150U C169A U176A, the reverse-splicing fitness is reported as 0.00648.
For A111C A120U A145G C150U C169A U176C, the reverse-splicing fitness was 0.00404.
For A111C A120U A145G C150U C169U U176G, the reverse-splicing fitness was 0.00321.
For A111C A120U A145G C150U C169U U176A, the reverse-splicing fitness was 0.0118.
Work on A111C A120U A145G C150U C169U U176C yielded a reverse-splicing fitness of 0.0178.
Variant A111C A120U A145C C150U has a reverse-splicing fitness of 0.18.
Work on A111C A120U A145C C150A yielded a reverse-splicing fitness of 0.0314.
A111C A120U A145C C150G showed a reverse-splicing fitness of 0.0809.
Variant A111C A120U A145G C150G C169G U176G has a reverse-splicing fitness of 0.00386.
With A111C A120U A145G C150G C169G U176A the reverse-splicing fitness was 0.00935.
Work on A111C A120U A145G C150G C169G U176C yielded a reverse-splicing fitness of 0.00876.
A111C A120U C150G C169G U176C showed a reverse-splicing fitness of 0.0039.
A111C A120U C150G C169G U176A showed a reverse-splicing fitness of 0.00481.
A111C A120U C150G C169G U176G showed a reverse-splicing fitness of 0.00234.
A111C A120G C169U U176G showed a reverse-splicing fitness of 0.00657.
Work on A111C A120G C169U U176C yielded a reverse-splicing fitness of 0.0498.
A111C A120G C169U U176A gave a reverse-splicing fitness of 0.0433.
Variant A111C A120G C150G C169U U176G has a reverse-splicing fitness of 0.00441.
Work on A111C A120G C150G C169U U176C yielded a reverse-splicing fitness of 0.0154.
A111C A120G C150G C169U U176A showed a reverse-splicing fitness of 0.00966.
A111C A120G U176G showed a reverse-splicing fitness of 0.00629.
A111C A120G U176C showed a reverse-splicing fitness of 0.0417.
A111C A120G U176A showed a reverse-splicing fitness of 0.0401.
In the case of A111C A120U C150U C169U U176G, the reverse-splicing fitness is reported as 0.00319.
In the case of A111C A120U C150U C169U U176C, the reverse-splicing fitness is reported as 0.0116.
A111C A120U C150U C169U U176A gave a reverse-splicing fitness of 0.0122.
A111C A145C C150G U176C showed a reverse-splicing fitness of 0.13.
A111C A145C C150G U176A showed a reverse-splicing fitness of 0.0871.
For A111C A120U C150U C169G U176C, the reverse-splicing fitness was 0.00812.
Work on A111C A120U C150U C169G U176G yielded a reverse-splicing fitness of 0.00251.
A111C A120U C150U C169G U176A showed a reverse-splicing fitness of 0.00676.
In the case of A111C A120U A145U C169G U176G, the reverse-splicing fitness is reported as 0.00209.
In the case of A111C A120U A145U C169G U176C, the reverse-splicing fitness is reported as 0.00935.
For A111C A120U A145U C169G U176A, the reverse-splicing fitness was 0.00434.
A111C A120U A145G C150A C169U U176G gave a reverse-splicing fitness of 0.00263.
For A111C A120U A145G C150A C169U U176C, the reverse-splicing fitness was 0.00638.
With A111C A120U A145G C150A C169U U176A the reverse-splicing fitness was 0.00876.
For A111C A145C C150G C169U U176A, the reverse-splicing fitness was 0.00817.
With A111C A145C C150G C169U U176G the reverse-splicing fitness was 0.00607.
Variant A111C A145C C150G C169U U176C has a reverse-splicing fitness of 0.0119.
A111C A120U A145C C150G U176C showed a reverse-splicing fitness of 0.0215.
A111C A120U A145C C150G U176G showed a reverse-splicing fitness of 0.00459.
With A111C A120U A145C C150G U176A the reverse-splicing fitness was 0.0207.
In the case of A111C A120U A145C C150G C169U U176C, the reverse-splicing fitness is reported as 0.00313.
A111C A120U A145C C150G C169U U176G showed a reverse-splicing fitness of 0.0023.
A111C A120U A145C C150G C169U U176A gave a reverse-splicing fitness of 0.00402.
Work on A111C A120G C150G C169A yielded a reverse-splicing fitness of 0.0136.
With A111C A120G C150G C169G the reverse-splicing fitness was 0.0183.
With A111C A120G C150G C169U the reverse-splicing fitness was 0.0177.
Work on A111C A120U A145G C150U U176A yielded a reverse-splicing fitness of 0.184.
Variant A111C A120U A145G C150U U176G has a reverse-splicing fitness of 0.0303.
A111C A120U A145G C150U U176C showed a reverse-splicing fitness of 0.239.
Work on A111C A120G C150G C169G U176G yielded a reverse-splicing fitness of 0.00457.
With A111C A120G C150G C169G U176C the reverse-splicing fitness was 0.00473.
A111C A120G C150G C169G U176A gave a reverse-splicing fitness of 0.0066.
In the case of A111C A120U A145U C150A U176C, the reverse-splicing fitness is reported as 0.0354.
Variant A111C A120U A145U C150A U176A has a reverse-splicing fitness of 0.0343.
For A111C A120U A145U C150A U176G, the reverse-splicing fitness was 0.0123.
Work on A111C A120U A145C C150A U176C yielded a reverse-splicing fitness of 0.0101.
In the case of A111C A120U A145C C150A U176A, the reverse-splicing fitness is reported as 0.016.
For A111C A120U A145C C150A U176G, the reverse-splicing fitness was 0.00735.
A111C A120U A145U C150G U176G gave a reverse-splicing fitness of 0.00462.
Variant A111C A120U A145U C150G U176C has a reverse-splicing fitness of 0.0313.
For A111C A120U A145U C150G U176A, the reverse-splicing fitness was 0.0214.
Work on A111C A120U A145C C150G C169G U176A yielded a reverse-splicing fitness of 0.00265.
A111C A120U A145C C150G C169G U176C showed a reverse-splicing fitness of 0.0032.
A111C A120U A145C C150G C169G U176G gave a reverse-splicing fitness of 0.00227.
Variant A111C A120U A145C C150A C169G U176A has a reverse-splicing fitness of 0.00305.
For A111C A120U A145C C150A C169G U176C, the reverse-splicing fitness was 0.00302.
In the case of A111C A120U A145C C150A C169G U176G, the reverse-splicing fitness is reported as 0.0024.
In the case of A111C A120U A145C C150U U176G, the reverse-splicing fitness is reported as 0.0246.
A111C A120U A145C C150U U176C showed a reverse-splicing fitness of 0.0487.
Work on A111C A120U A145C C150U U176A yielded a reverse-splicing fitness of 0.0649.
A111C A120U A145C C150U C169A showed a reverse-splicing fitness of 0.00231.
A111C A120U A145C C150U C169U showed a reverse-splicing fitness of 0.0171.
In the case of A111C A120U A145C C150U C169G, the reverse-splicing fitness is reported as 0.0128.
Work on A111C A120U A145G C150G C169A U176G yielded a reverse-splicing fitness of 0.00554.
A111C A120U A145G C150G C169A U176C showed a reverse-splicing fitness of 0.009.
Work on A111C A120U A145G C150G C169A U176A yielded a reverse-splicing fitness of 0.0118.
Variant A111C A145C has a reverse-splicing fitness of 0.768.
With A111C A120U C169A U176A the reverse-splicing fitness was 0.00319.
A111C A120U C169A U176G gave a reverse-splicing fitness of 0.00232.
For A111C A120U C169A U176C, the reverse-splicing fitness was 0.00293.
